In publication PMC7943015:

Target: CgYps1 (C. glabrata (endogenous in derivatives of strain BG2))
Assay: co-IP; precleared lysates (6 mg) incubated with anti-CgYps1 antibody-conjugated beads for 12 h at 4°C; blots with anti-CgYps1 and anti-CgPst2; cells untreated or treated with menadione (90 μM for 90 min)

Substance: CgPst2 (from UniProt Q6FM13 1-198) (natural protein)
- amount of CgPst2 co-precipitated in MD-treated against untreated cells: 40 % lower
